Assay results published in the nanobody polyreactivity screen of Harvey et al. (2022).

assay: yeast display, Sf9 membrane polyspecificity reagent, FACS + sequencing; frameworks hold sequencing errors
Procedure, shortened: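 Galactose induction of a Saccharomyces cerevisiae BJ5465 synthetic nanobody display library ran 36–48 hours. The cells were then stained for 1 hour at 4 °C with 10% biotinylated, detergent-solubilized Sf9 membrane reagent, pulled down on streptavidin microbeads and FACS-sorted into low and high (top ~1%) gates on expression and reagent-binding fluorescence. Labels for polyreactivity follow the gate of origin.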

Row | Sequence | polyreactivity (PSR sort gate)
1 | QDQLVESGGGLVQAGGSLRISCAASGSIFTYNAMGWYREAPGKERELVAAINTSGSTNYADSVKGRFTISRDNAKNTVYLQKNSLKPEDTAVYYCAADYPYWRRPYSRYGYWGQGTQVTVSS | low polyreactivity
2 | QDQLVESGGGLVQAGGSLRISIAASARTFRDYVMGWSRQAPGKERELVAAISTRGASTYYADSVKGRFTISRDNAKNTVYLQMNTLKPEDTADYYCAARSTRRGNEYDYWGQGTQVTVSS | high polyreactivity
3 | QDQLVESGGGLVQAGGSLRLICAASASTFTRYAMGWYRQAPGKERELVACITGRGGSTYYADSVKGRFPISRDYAKNTVYLQMNCLKPEDTAVYYCARAEGKCPYSRYWPYRGGYDYWGQGTQVTRSS | high polyreactivity
4 | QDQLVESGGGLVQAGGSLRLICAASGRTFNRYGMGWNRQATGKERELVASITSGGSTNYADSVKGRFTISRDNAKNNVYLQMNSLKLEDTAVYYCAKRSIGRYPRTYDYWGQGTQVTVSS | low polyreactivity
5 | QDQLVESGGGLVQAGGSLRLICAASGRTFYPYVMGWYRQAPGKERDLVAAITDSGGNTYYADSVKGRFTISRDNAKNTVYLQMNSLKPEDTAVYYCNARFYYPSRRGTFQYNYWGQGTQVTVSS | low polyreactivity
6 | QDQLVESGGGLVQAGGSLRLICAASGYTFGHYVMGWYRQAPGKERELVAAITLSGGGTYYADSVKGRFTISRDNAKNTVYLQMNCLKPEDTAVYYCAAVGGEHAKKTYSRYKVDYWGQGTQVTVSS | low polyreactivity
7 | QDQLVESGGGLVQAGGSLRLRCAASGFIFRYYAMGWYRQAPGKERELVAAIDYSGGSTNYADSVKRRFTISRDNAKNTVYLQMNSLKPEDTAVYYCNAEYTWHRGYDYWGQGTQVTVSS | low polyreactivity
8 | QDQLVESGGGLVQAGGSLRLRCAASGRTFEGNAMGWYRQAAGTEGELVAAMTSGGPTNSADSVKGRFTISRDNAKNTVYFQMNSLKPEDTAVYYCADETRDRSTYFPGQAYDYWGQGTQVTVSS | low polyreactivity
9 | QDQLVESGGGLVQAGGSLRLSCAASARIFPHYPMGWYRQAPGKERELVATITSGGRTNYADSVKGRFTISRDNAKNTVYLQMNSLKPEDTAVYYCAVDTWGSSWYDLFRETSDYWGHGTQVTVSS | low polyreactivity
10 | QDQLVESGGGLVQAGGSLRLSCAASGFIFARYVMGWYRPAPGKERELVASITGSGVSTYYADSVKGRFTISRDNAKNTVYLQMNSLKPEDTAVYYCATRVYRRYYLNSWYNYWGQGTQVTVSS | high polyreactivity
11 | QDQLVESGGGLVQAGGSLRLSCAASGFIFDDNAMGGYRQAPGKERELVAAITSGGGSTYYADSVKGRFTISRDNAKYTVYLQMNSLKPEDTAVYYCNAVPSQHDEFDYWGQGTQVTVSS | low polyreactivity
12 | QDQLVESGGGLVQAGGSLRLSCAASGFIFDDNAMGWSRQAPGKERELVAAITSGGGSTYYAVSVKGRFTISRDNAKNTVYLQMNSLKPEDTAVYYCNAVPSQHDEFDYWGQGTQVTVSS | low polyreactivity
13 | QDQLVESGGGLVQAGGSLRLSCAASGFIFGNYALGWYRQAPGKERELVATITWRGGSTYYADSVKGRFTISRDNAKNTVYLQMNSLKPEDTAVYYCARPYASYSSFYYYGYWGQGTQVTVSS | high polyreactivity
14 | QDQLVESGGGLVQAGGSLRLSCAASGFIFGRYTMGWYRQAPWKERELVAAISGSDVSTYYADSVKGRFTISRDNAKNTVYIQMNSLKPEDTAVYYCAADAPWAYYEYDYWGQGTQVTVSS | low polyreactivity
15 | QDQLVESGGGLVQAGGSLRLSCAASGFIFYFYAMVWYRQAPGKERELVAAISSGGSTNYADSVKGRFTISRDNAKNTVYLQMNSLKPEDTAVYYCNKGGYYKYFLNDYNYWGQGTQVTVSS | low polyreactivity
16 | QDQLVESGGGLVQAGGSLRLSCAASGFILGLNAMGWYRQAPGKEREFVADISWSGDSTYYADSVKGRFTISRDNAKNTVYLQMNSLKPEDTAFYYCAAVPYYNWGYYYWGQGTQVTVSS | low polyreactivity
17 | QDQLVESGGGLVQAGGSLRLSCAASGFIYFQYAMGWYRQAPGKERELVAAISGSGVTTYYADSVKGRFTISRDNAKYTVYLQMNSLKPEDTAVYYCNAALRWKYDWGQGTQVTVSS | low polyreactivity
